From paper PMC4884500 (DNA repair, 2016)

T1: Full-length MmRAD51D (yeast two-hybrid fusion) (mouse, UniProt O55230 1-329)
T1 sequence (looked up): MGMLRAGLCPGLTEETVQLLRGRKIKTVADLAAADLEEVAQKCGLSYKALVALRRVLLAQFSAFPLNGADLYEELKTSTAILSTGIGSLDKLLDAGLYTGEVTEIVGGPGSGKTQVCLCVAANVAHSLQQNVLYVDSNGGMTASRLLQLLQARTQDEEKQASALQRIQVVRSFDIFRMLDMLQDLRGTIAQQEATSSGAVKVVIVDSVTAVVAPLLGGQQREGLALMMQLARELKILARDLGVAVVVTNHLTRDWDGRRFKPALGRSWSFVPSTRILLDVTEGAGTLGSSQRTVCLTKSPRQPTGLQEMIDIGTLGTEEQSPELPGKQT


Assays:
[1] = biological target: Full-length MmRAD51D (yeast two-hybrid fusion) (mouse) (UniProt O55230); assay: two-hybrid
[2] = biological target: T1, Full-length MmRAD51D (yeast two-hybrid …); assay: two-hybrid

fold decrease in the level of interaction against full-length RNF138 [1]	β-galactosidase level relative to the DBD-RAD51D:AD-RAD51C positive control [2]	Molecule
8 fold	–	MmRnf138-Δ5 (RNF138 splice variant with a deletion of exon 5, yeast two-hybrid fusion) (natural protein)
3 fold	–	MmRnf138-Δ7 (RNF138 splice variant with a deletion of exon 7, yeast two-hybrid fusion) (natural protein)
–	79%	RNF138 (yeast two-hybrid fusion) (natural protein, mouse, UniProt Q9CQE0-1 1-245, looked up) MSEELSAATSYTEDDFYCPVCQEVLKTPVRTAACQHVFCRKCFLTAMRESGIHCPLCRGSVTRRERACPERALDLENIMRRFSGSCRCCSKKIKFYRMRHHYKSCKKYQDEYGVSSVIPNFKISQDSVRSSNRSETSASDNTETYQEDTSSSGHPTFKCPLCQESNFTRQRLLDHCNSNHLFQIVPVTCPICVSLPWGDPSQITRNFVSHLNQRHQFDYGEFVNLQLDEETQYQTAVEESFQVNM
